Test results taken from patent publication US20010029293A1 (ICOS, published 2001).

Experiments:
[1] = target: T1, human ICAM-1 (human, UniProt P05362 28-532); assay: FACS, 5 µg/ml
T1 construct: whole, on cells; on transfected L or COS cells

[2] = target: T2, chimeric Protein 3 (ICAM-R domains 1-3 / ICAM-1) (human, UniProt P05362 317-532); assay: FACS, 5 µg/ml
T2 construct: range 317-532; on COS cells; also called Protein number 3; RD1-3.1D4-5

[3] = target: T3, human ICAM-R (human, UniProt P32942 30-547); assay: FACS, 5 µg/ml
T3 construct: On transfected L, CV-1 or COS cells, or native on human leukocytes and cell lines; also called ICAM-3; CDw50
T3 chain: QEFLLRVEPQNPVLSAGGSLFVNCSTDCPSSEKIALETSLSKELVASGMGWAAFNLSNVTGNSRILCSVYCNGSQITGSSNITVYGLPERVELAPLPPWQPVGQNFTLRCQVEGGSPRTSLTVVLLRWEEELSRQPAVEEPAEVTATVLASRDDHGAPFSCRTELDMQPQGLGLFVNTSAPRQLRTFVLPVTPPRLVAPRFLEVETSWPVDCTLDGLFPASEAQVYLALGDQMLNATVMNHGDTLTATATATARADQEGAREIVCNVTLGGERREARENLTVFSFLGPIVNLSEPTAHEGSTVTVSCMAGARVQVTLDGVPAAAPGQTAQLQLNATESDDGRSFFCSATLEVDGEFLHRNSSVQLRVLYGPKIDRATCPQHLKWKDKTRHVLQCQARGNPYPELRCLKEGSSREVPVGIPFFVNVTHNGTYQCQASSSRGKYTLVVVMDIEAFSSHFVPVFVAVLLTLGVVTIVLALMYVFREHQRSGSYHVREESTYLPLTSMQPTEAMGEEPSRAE

[4] = target: T3, human ICAM-R; assay: cell-based or functional assay
[5] = target: T4, LFA-1 (CD11a/CD18) on cells (human, UniProt P20701 26-1170; P05107 23-769); assay: cell adhesion to coated shICAM-R, peptide 1-2 mg/ml
T4 construct: whole, on cells; on SKW3, JY, HL-60 cells, neutrophils, or CHO/COS transfectants; also called CD18/CD11a
T4 sequence (P20701 26-1170, chain 1 of 2): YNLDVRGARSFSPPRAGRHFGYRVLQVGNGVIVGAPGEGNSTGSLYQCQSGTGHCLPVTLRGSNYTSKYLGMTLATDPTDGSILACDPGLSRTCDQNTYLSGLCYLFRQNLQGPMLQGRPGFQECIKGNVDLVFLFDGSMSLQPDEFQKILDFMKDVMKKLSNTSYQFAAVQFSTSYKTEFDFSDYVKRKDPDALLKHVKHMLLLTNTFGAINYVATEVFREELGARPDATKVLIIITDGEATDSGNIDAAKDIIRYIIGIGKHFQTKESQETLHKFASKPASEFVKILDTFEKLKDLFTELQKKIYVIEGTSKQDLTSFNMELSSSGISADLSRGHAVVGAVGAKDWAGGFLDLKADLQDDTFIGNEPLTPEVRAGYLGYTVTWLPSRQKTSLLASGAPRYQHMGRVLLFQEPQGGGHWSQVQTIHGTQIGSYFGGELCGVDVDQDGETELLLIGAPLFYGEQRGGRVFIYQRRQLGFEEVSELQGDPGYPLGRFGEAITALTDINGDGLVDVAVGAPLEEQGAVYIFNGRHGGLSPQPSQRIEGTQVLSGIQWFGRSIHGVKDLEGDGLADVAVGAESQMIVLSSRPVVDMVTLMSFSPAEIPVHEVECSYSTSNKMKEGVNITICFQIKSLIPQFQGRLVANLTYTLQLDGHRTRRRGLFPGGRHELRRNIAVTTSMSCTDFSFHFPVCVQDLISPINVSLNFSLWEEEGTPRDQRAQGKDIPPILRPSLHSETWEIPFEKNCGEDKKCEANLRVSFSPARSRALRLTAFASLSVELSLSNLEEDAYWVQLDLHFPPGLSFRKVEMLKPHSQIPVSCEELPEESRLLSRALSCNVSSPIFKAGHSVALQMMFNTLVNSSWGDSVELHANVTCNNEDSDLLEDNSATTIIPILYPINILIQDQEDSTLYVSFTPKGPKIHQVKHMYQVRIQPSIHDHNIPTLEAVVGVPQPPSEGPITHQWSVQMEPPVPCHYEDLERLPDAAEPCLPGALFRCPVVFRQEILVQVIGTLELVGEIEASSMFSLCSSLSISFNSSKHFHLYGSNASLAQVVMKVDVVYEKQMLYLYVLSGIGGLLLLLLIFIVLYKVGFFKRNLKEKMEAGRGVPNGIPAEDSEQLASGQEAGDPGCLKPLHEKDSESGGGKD
T4 sequence (P05107 23-769, chain 2 of 2): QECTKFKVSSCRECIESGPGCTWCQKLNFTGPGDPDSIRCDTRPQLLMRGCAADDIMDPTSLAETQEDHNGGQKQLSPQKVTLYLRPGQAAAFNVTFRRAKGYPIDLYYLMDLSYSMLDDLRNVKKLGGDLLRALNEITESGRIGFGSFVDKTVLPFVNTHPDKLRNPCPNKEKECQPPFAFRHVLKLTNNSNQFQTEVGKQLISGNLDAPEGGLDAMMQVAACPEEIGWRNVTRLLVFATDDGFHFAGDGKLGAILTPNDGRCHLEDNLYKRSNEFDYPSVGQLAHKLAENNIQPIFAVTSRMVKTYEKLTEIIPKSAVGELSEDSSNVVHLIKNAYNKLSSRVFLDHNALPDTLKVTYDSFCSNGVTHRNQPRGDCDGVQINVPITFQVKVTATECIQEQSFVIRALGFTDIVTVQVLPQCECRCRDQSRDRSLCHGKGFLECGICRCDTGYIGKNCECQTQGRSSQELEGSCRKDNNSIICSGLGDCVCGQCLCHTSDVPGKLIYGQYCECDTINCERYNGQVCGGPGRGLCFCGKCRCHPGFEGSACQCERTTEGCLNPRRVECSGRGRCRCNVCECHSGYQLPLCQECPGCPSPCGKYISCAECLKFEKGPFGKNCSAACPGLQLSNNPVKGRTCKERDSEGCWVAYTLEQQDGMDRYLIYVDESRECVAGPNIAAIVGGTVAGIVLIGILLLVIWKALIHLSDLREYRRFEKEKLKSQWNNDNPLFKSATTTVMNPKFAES

[6] = target: T5, VLA-4 (α4/β1) on cells (UniProt P13612 34-1032; P05556 21-798, limits assumed); assay: not described
T5 construct: whole, on cells; on Jurkat cells, T cells or COS transfectants

[7] = target: T4, LFA-1 (CD11a/CD18) on cells; assay: not described
[8] = target: Mac-1 (CD11b/CD18) on cells (UniProt P11215 17-1152; P05107 23-769); assay: neutrophil adhesion
[9] = target: T4, LFA-1 (CD11a/CD18) on cells; assay: neutrophil adhesion
[10] = target: T4, LFA-1 (CD11a/CD18) on cells; assay: JY cell adhesion to plate-bound chimera
[11] = target: T6, soluble human ICAM-R (human, UniProt P32942 30-485); assay: blocking of biotinylated murine ICR-8.1 (competitor) binding to ICAM-R
T6 construct: baculovirus/Sf-9 product; also called shICAM-R; ICAM-Rt1
T6 chain: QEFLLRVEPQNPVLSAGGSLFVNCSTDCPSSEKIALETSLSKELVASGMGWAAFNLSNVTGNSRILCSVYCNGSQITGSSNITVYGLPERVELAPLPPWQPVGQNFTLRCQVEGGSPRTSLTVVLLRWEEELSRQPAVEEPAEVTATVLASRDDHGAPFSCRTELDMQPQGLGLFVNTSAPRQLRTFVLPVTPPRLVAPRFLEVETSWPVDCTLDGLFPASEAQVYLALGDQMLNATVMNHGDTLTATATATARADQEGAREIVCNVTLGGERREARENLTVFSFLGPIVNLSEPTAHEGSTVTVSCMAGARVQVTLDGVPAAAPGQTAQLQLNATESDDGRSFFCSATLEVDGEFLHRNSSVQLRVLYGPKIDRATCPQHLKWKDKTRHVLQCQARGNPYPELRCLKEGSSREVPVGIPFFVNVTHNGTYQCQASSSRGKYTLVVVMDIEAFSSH

[12] = target: T6, soluble human ICAM-R; assay: ELISA on coated shICAM-R

T1 sequence (P05362 28-532): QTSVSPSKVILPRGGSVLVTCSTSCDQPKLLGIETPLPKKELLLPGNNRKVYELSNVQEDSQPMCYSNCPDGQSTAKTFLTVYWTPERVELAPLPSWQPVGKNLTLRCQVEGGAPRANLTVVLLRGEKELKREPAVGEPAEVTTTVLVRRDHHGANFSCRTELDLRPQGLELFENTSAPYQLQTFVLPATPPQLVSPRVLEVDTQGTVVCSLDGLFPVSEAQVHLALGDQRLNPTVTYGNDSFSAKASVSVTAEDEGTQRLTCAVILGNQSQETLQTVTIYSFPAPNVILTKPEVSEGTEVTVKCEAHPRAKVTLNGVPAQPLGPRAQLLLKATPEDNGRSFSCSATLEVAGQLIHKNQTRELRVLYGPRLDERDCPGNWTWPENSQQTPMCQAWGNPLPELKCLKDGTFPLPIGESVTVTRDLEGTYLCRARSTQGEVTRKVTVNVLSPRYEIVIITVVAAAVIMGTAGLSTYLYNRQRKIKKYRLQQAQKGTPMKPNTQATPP

B1: ICR-8.1 (antibody, mouse IgG1, V domains shown)
VH: EIQLQQTGPELVKPGASVKISCKASGYSFTDCIILWVKQSHGKGLEWIGKINPYFGTTTYNLKFKGKATLTVDKSSSTAHMQLNSLTSEDSAVYYCARKEAYPDAMDYWGQGTSVTVSS
VL: DAVMTQTPLSLPVSLGDQASISCRSSQSLVHSNGDTYLHWYLQKPGQSPQLLIYKVSNRFSGVPDRFSGSGSGTDFTLKLSRVEAEDLGVYFCSQSTHVPYTFGGGTKLEIK
notes: murine IgG1, kappa; also called 46D7E; ATCC HB 11232
percent positive COS cell transfectants [1]: 1.08%
percent positive COS cell transfectants [2]: 44.9%
percent positive COS cell transfectants [3]: 48.9%
IC50 (µg/ml), inhibition of SEA-induced PBL proliferation by plate-bound antibody [4]: 1 µg/mL

DGQST [ICAM-1 peptide 70-74 (DGQST)]
% Inhibition CD18-Dependent Binding (SKW3) [5]: 0%

B2: ICAM-R/IgG variant D231H-Ig (Fc fusion)
chain: QEFLLRVEPQNPVLSAGGSLFVNCSTDCPSSEKIALETSLSKELVASGMGWAAFNLSNVTGNSRILCSVYCNGSQITGSSNITVYGLPERVELAPLPPWQPVGQNFTLRCQVEGGSPRTSLTVVLLRWEEELSRQPAVEEPAEVTATVLASRDDHGAPFSCRTELDMQPQGLGLFVNTSAPRQLRTFVLPVTPPRLVAPRFLEVETSWPVDCTLDGLFPASEAQVYLALGHQMLNATVMNHGDTLTATATATARADQEGAREIVCNVTLGGERREARENLTVFSFLGPIVNLSEPTAHEGSTVTVSCMAGARVQVTLDGVPAAAPGQTAQLQLNATESDDGRSFFCSATLEVDGEFLHRNSSVQLRVLYGPKIDRATCPQHLKWKDKTRHVLQCQARGNPYPELRCLKEGSSREVPVGIPFFVNVTHNGTYQCQASSSRGKYTLVVVMDIEAFSSH
notes: not shown: human IgG1 hinge, CH2, CH3
binding result [6]: binds
binding result [7]: binds

B3: ICAM-R/IgG variant E37T-Ig (Fc fusion)
chain: QEFLLRVEPQNPVLSAGGSLFVNCSTDCPSSEKIALASSLSKELVASGMGWAAFNLSNVTGNSRILCSVYCNGSQITGSSNITVYGLPERVELAPLPPWQPVGQNFTLRCQVEGGSPRTSLTVVLLRWEEELSRQPAVEEPAEVTATVLASRDDHGAPFSCRTELDMQPQGLGLFVNTSAPRQLRTFVLPVTPPRLVAPRFLEVETSWPVDCTLDGLFPASEAQVYLALGDQMLNATVMNHGDTLTATATATARADQEGAREIVCNVTLGGERREARENLTVFSFLGPIVNLSEPTAHEGSTVTVSCMAGARVQVTLDGVPAAAPGQTAQLQLNATESDDGRSFFCSATLEVDGEFLHRNSSVQLRVLYGPKIDRATCPQHLKWKDKTRHVLQCQARGNPYPELRCLKEGSSREVPVGIPFFVNVTHNGTYQCQASSSRGKYTLVVVMDIEAFSSH
notes: as for B2
binding result [7]: no binding

B4: ICAM-R/His fusion protein (receptor, not shown: small tags and cut ends)
chain: QEFLLRVEPQNPVLSAGGSLFVNCSTDCPSSEKIALETSLSKELVASGMGWAAFNLSNVTGNSRILCSVYCNGSQITGSSNITVYGLPERVELAPLPPWQPVGQNFTLRCQVEGGSPRTSLTVVLLRWEEELSRQPAVEEPAEVTATVLASRDDHGAPFSCRTELDMQPQGLGLFVNTSAPRQLRTFVLPVTPPRLVAPRFLEVETSWPVDCTLDGLFPASEAQVYLALGDQMLNATVMNHGDTLTATATATARADQEGAREIVCNVTLGGERREARENLTVFSFLGPIVNLSEPTAHEGSTVTVSCMAGARVQVTLDGVPAAAPGQTAQLQLNATESDDGRSFFCSATLEVDGEFLHRNSSVQLRVLYGPKIDRATCPQHLKWKDKTRHVLQCQARGNPYPELRCLKEGSSREVPVGIPFFVNVTHNGTYQCQASSSRGKYTLVVVMDIEAFSSH
notes: CHO product
binding result [8]: binds
binding result [9]: binds

B5: ICAM-R/IgG chimera E37/A (Fc fusion)
chain: QEFLLRVEPQNPVLSAGGSLFVNCSTDCPSSEKIALATSLSKELVASGMGWAAFNLSNVTGNSRILCSVYCNGSQITGSSNITVYGLPERVELAPLPPWQPVGQNFTLRCQVEGGSPRTSLTVVLLRWEEELSRQPAVEEPAEVTATVLASRDDHGAPFSCRTELDMQPQGLGLFVNTSAPRQLRTFVLPVTPPRLVAPRFLEVETSWPVDCTLDGLFPASEAQVYLALGDQMLNATVMNHGDTLTATATATARADQEGAREIVCNVTLGGERREARENLTVFSFLGPIVNLSEPTAHEGSTVTVSCMAGARVQVTLDGVPAAAPGQTAQLQLNATESDDGRSFFCSATLEVDGEFLHRNSSVQLRVLYGPKIDRATCPQHLKWKDKTRHVLQCQARGNPYPELRCLKEGSSREVPVGIPFFVNVTHNGTYQCQASSSRGKYTLVVVMDIEAFSSH
notes: also called ICAM-R E37/A; not shown: human IgG1 hinge, CH2, CH3
binding result [10]: no binding
binding result [8]: binds

EKIALET [ICAM-R peptide 32-38]
% Inhibition CD18-Dependent Binding (SKW3) [5]: 0%

GDQML [ICAM-R peptide 230-234 (GDQML)]
% Inhibition CD18-Dependent Binding (SKW3) [5]: 0%

B6: ICR-8.1 miHuVHI/HuVK (antibody, human IgG4, V domains shown)
VH: QIQLVQSGAEVKKPGASVKVSCKASGYTFTDCIILWVRQAPGQGLEWMGKINPYFGTTTYAQKFQGRVTITADTSTSTAYMELSSLRSEDTAVYYCARKEAYPDAMDYWGQGTLVTVSS
VL: DIVMTQSPLSLPVTPGEPASISCRSSQSLVHSNGDTYLHWYLQKPGQSPQLLIYKVSNRFSGVPDRFSGSGSGTDFTLKISRVEAEDVGVYYCSQSTHVPYTFGQGTKVEIK
notes: human IgG4 and human kappa constant regions
fold less well in competition than murine ICR-8.1 [11]: ~2 fold
fold improvement in binding over the other recombinant ICR-8.1 antibodies [12]: ~2 fold

B7: ICR-8.1 miHuVHI/MuVK (antibody, human IgG4, V domains shown)
VH: QIQLVQSGAEVKKPGASVKVSCKASGYTFTDCIILWVRQAPGQGLEWMGKINPYFGTTTYAQKFQGRVTITADTSTSTAYMELSSLRSEDTAVYYCARKEAYPDAMDYWGQGTLVTVSS
VL: DAVMTQTPLSLPVSLGDQASISCRSSQSLVHSNGDTYLHWYLQKPGQSPQLLIYKVSNRFSGVPDRFSGSGSGTDFTLKLSRVEAEDLGVYFCSQSTHVPYTFGGGTKLEIK
notes: as for B6
fold less well in competition than murine ICR-8.1 [11]: ~2 fold
fold improvement in binding over the other recombinant ICR-8.1 antibodies [12]: ~2 fold

GERREA [ICAM-R peptide 271-276]
% Inhibition CD18-Dependent Binding (SKW3) [5]: 0%

B8: ICR-1.1 antibody with HuVK (hybrid) (antibody, human IgG4, V domains shown)
VH: QVQLQQSGAELAKPGASVKMSCKASGYTFTVYWMHWVKQRPGQGLEWIGYINPNTDYTEYNQRFQDKATLTADKSSSTAYMQLSSLTSEDSAVYYCARWGGNSYGLDYWGQGTSVTVSS
VL: DIQMTQSPSSLSASVGDRVTITCSASSSVSYIYWYQQKPGKAPKLLIYLTSNLASGVPSRFSGSGSGTDFTLTISSLQPEDFATYYCQQWKSIPLTFGQGTKLEIK
notes: human IgG4 and human kappa constant regions; also called HuVK version
fold deficit in binding against the murine progenitor chain [12]: 2 fold

B9: domain deletion ICAM-R/IgG chimera with ICAM-R domains 3, 4 and 5 (Fc fusion)
chain: VLPVTPPRLVAPRFLEVETSWPVDCTLDGLFPASEAQVYLALGDQMLNATVMNHGDTLTATATATARADQEGAREIVCNVTLGGERREARENLTVFSFLGPIVNLSEPTAHEGSTVTVSCMAGARVQVTLDGVPAAAPGQTAQLQLNATESDDGRSFFCSATLEVDGEFLHRNSSVQLRVLYGPKIDRATCPQHLKWKDKTRHVLQCQARGNPYPELRCLKEGSSREVPVGIPFFVNVTHNGTYQCQASSSRGKYTLVVVMDIEAFSSH
notes: as for B2
binding result [10]: no binding
